{
  "source": "the supplement of paper PMC9112550",
  "about": "“Optimization of the antimicrobial peptide Bac7 by deep mutational scanning” (BMC Biology, 2022);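 note: peptides expressed intracellularly from a pBAD plasmid library in pooled LB shake-flask culture, induced with 0.3% L-arabinose, DNA abundance read by NGS, three biological replicates, DESeq2 with apeglm shrinkage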",
  "data": [
    {"test_system": "Escherichia coli TOP10", "assay": "shrunken log2 fold change of peptide-encoding DNA abundance (4.5 h post-induction vs induction); higher = less antimicrobial activity (less host growth inhibition)", "settings": "time post-induction: 4.5 h; library: site-saturation at positions 5, 18, 19, 20", "values": [
      {"sequence": "RRIRTRPPRLPRPRPRPWHSPRP", "shrunken log2 fold change": -0.274},
      {"sequence": "RRIRARPPRLPRPRPRPYSCPRP", "shrunken log2 fold change": -0.43},
      {"sequence": "RRIRARPPRLPRPRPRPIQMPRP", "shrunken log2 fold change": 0.0579},
      {"sequence": "RRIRWRPPRLPRPRPRPANDPRP", "shrunken log2 fold change": -0.0438},
      {"sequence": "RRIRLRPPRLPRPRPRPQYAPRP", "shrunken log2 fold change": -0.0369},
      {"sequence": "RRIRMRPPRLPRPRPRPCFTPRP", "shrunken log2 fold change": -0.123},
      {"sequence": "RRIRLRPPRLPRPRPRPCGRPRP", "shrunken log2 fold change": 0.147},
      {"sequence": "RRIRERPPRLPRPRPRPITWPRP", "shrunken log2 fold change": 0.0224},
      {"sequence": "RRIRLRPPRLPRPRPRPCVGPRP", "shrunken log2 fold change": -0.0253},
      {"sequence": "RRIRERPPRLPRPRPRPSHMPRP", "shrunken log2 fold change": -0.431},
      {"sequence": "RRIRKRPPRLPRPRPRPLYIPRP", "shrunken log2 fold change": -0.329},
      {"sequence": "RRIRFRPPRLPRPRPRPSESPRP", "shrunken log2 fold change": -0.0918},
      {"sequence": "RRIRYRPPRLPRPRPRPMVFPRP", "shrunken log2 fold change": -0.00776},
      {"sequence": "RRIRCRPPRLPRPRPRPPHTPRP", "shrunken log2 fold change": 0.824},
      {"sequence": "RRIRHRPPRLPRPRPRPKSDPRP", "shrunken log2 fold change": -0.255},
      {"sequence": "RRIRVRPPRLPRPRPRPSGLPRP", "shrunken log2 fold change": 0.0687},
      {"sequence": "RRIRERPPRLPRPRPRPPCHPRP", "shrunken log2 fold change": -0.251},
      {"sequence": "RRIRYRPPRLPRPRPRPDTKPRP", "shrunken log2 fold change": -0.0212},
      {"sequence": "RRIRWRPPRLPRPRPRPVLTPRP", "shrunken log2 fold change": 0.147},
      {"sequence": "RRIRDRPPRLPRPRPRPGKEPRP", "shrunken log2 fold change": -0.0214},
      {"sequence": "RRIRWRPPRLPRPRPRPSLEPRP", "shrunken log2 fold change": 0.067},
      {"sequence": "RRIRYRPPRLPRPRPRPCQQPRP", "shrunken log2 fold change": -0.163},
      {"sequence": "RRIRRRPPRLPRPRPRPLDTPRP", "shrunken log2 fold change": 0.168},
      {"sequence": "RRIRGRPPRLPRPRPRPYFIPRP", "shrunken log2 fold change": -0.336},
      {"sequence": "RRIRQRPPRLPRPRPRPKDCPRP", "shrunken log2 fold change": -0.00225},
      {"sequence": "RRIRNRPPRLPRPRPRPGSDPRP", "shrunken log2 fold change": -0.0348},
      {"sequence": "RRIRKRPPRLPRPRPRPMETPRP", "shrunken log2 fold change": -0.0146},
      {"sequence": "RRIRPRPPRLPRPRPRPMAMPRP", "shrunken log2 fold change": -0.146},
      {"sequence": "RRIRVRPPRLPRPRPRPCHFPRP", "shrunken log2 fold change": -0.0858},
      {"sequence": "RRIRIRPPRLPRPRPRPFDWPRP", "shrunken log2 fold change": 0.305},
      {"sequence": "RRIRWRPPRLPRPRPRPDVEPRP", "shrunken log2 fold change": 0.182},
      {"sequence": "RRIRTRPPRLPRPRPRPVIMPRP", "shrunken log2 fold change": -0.181},
      {"sequence": "RRIRYRPPRLPRPRPRPGGFPRP", "shrunken log2 fold change": -0.169},
      {"sequence": "RRIRVRPPRLPRPRPRPHSRPRP", "shrunken log2 fold change": 0.0978},
      {"sequence": "RRIRIRPPRLPRPRPRPGKTPRP", "shrunken log2 fold change": -0.126},
      {"sequence": "RRIRRRPPRLPRPRPRPLTSPRP", "shrunken log2 fold change": 0.233},
      {"sequence": "RRIRPRPPRLPRPRPRPPPQPRP", "shrunken log2 fold change": 0.963},
      {"sequence": "RRIRKRPPRLPRPRPRPMDLPRP", "shrunken log2 fold change": 0.198},
      {"sequence": "RRIRLRPPRLPRPRPRPQETPRP", "shrunken log2 fold change": 0.0529},
      {"sequence": "RRIRRRPPRLPRPRPRPLWQPRP", "shrunken log2 fold change": 0.318},
      {"sequence": "RRIRVRPPRLPRPRPRPMCGPRP", "shrunken log2 fold change": 0.0281},
      {"sequence": "RRIRGRPPRLPRPRPRPADAPRP", "shrunken log2 fold change": 1},
      {"sequence": "RRIRPRPPRLPRPRPRPSSAPRP", "shrunken log2 fold change": 0.0846},
      {"sequence": "RRIRWRPPRLPRPRPRPLAVPRP", "shrunken log2 fold change": 0.541},
      {"sequence": "RRIRCRPPRLPRPRPRPAYDPRP", "shrunken log2 fold change": 0.0664},
      {"sequence": "RRIRSRPPRLPRPRPRPYRHPRP", "shrunken log2 fold change": -0.542},
      {"sequence": "RRIRQRPPRLPRPRPRPFVGPRP", "shrunken log2 fold change": -0.237},
      {"sequence": "RRIRTRPPRLPRPRPRPTFAPRP", "shrunken log2 fold change": 0.459},
      {"sequence": "RRIRDRPPRLPRPRPRPNDMPRP", "shrunken log2 fold change": -0.104},
      {"sequence": "RRIRERPPRLPRPRPRPQESPRP", "shrunken log2 fold change": -0.239},
      {"sequence": "RRIRLRPPRLPRPRPRPYQTPRP", "shrunken log2 fold change": 0.0345},
      {"sequence": "RRIRHRPPRLPRPRPRPNVWPRP", "shrunken log2 fold change": 0.0763},
      {"sequence": "RRIRYRPPRLPRPRPRPTPFPRP", "shrunken log2 fold change": -0.27},
      {"sequence": "RRIRYRPPRLPRPRPRPCNSPRP", "shrunken log2 fold change": -0.168},
      {"sequence": "RRIRKRPPRLPRPRPRPWAHPRP", "shrunken log2 fold change": 4.43},
      {"sequence": "RRIRDRPPRLPRPRPRPFSLPRP", "shrunken log2 fold change": -0.176},
      {"sequence": "RRIRLRPPRLPRPRPRPGEFPRP", "shrunken log2 fold change": 2.05},
      {"sequence": "RRIRHRPPRLPRPRPRPFVGPRP", "shrunken log2 fold change": -0.31},
      {"sequence": "RRIRFRPPRLPRPRPRPEHYPRP", "shrunken log2 fold change": -0.101},
      {"sequence": "RRIRCRPPRLPRPRPRPAFAPRP", "shrunken log2 fold change": 0.134},
      {"sequence": "RRIRTRPPRLPRPRPRPKFAPRP", "shrunken log2 fold change": 0.232},
      {"sequence": "RRIRPRPPRLPRPRPRPSILPRP", "shrunken log2 fold change": -0.0331},
      {"sequence": "RRIRIRPPRLPRPRPRPCFDPRP", "shrunken log2 fold change": -0.493},
      {"sequence": "RRIRSRPPRLPRPRPRPAALPRP", "shrunken log2 fold change": -0.0411},
      {"sequence": "RRIRYRPPRLPRPRPRPNQPPRP", "shrunken log2 fold change": -0.0705},
      {"sequence": "RRIRQRPPRLPRPRPRPNMKPRP", "shrunken log2 fold change": -0.336},
      {"sequence": "RRIRRRPPRLPRPRPRPWQRPRP", "shrunken log2 fold change": 0.188},
      {"sequence": "RRIRWRPPRLPRPRPRPHEVPRP", "shrunken log2 fold change": 0.169},
      {"sequence": "RRIRTRPPRLPRPRPRPMDKPRP", "shrunken log2 fold change": -0.528},
      {"sequence": "RRIRKRPPRLPRPRPRPWQQPRP", "shrunken log2 fold change": 0.608},
      {"sequence": "RRIRMRPPRLPRPRPRPWSLPRP", "shrunken log2 fold change": -0.385},
      {"sequence": "RRIRKRPPRLPRPRPRPPWMPRP", "shrunken log2 fold change": 0.48},
      {"sequence": "RRIRTRPPRLPRPRPRPEGWPRP", "shrunken log2 fold change": 0.688},
      {"sequence": "RRIRGRPPRLPRPRPRPGRMPRP", "shrunken log2 fold change": 0.727},
      {"sequence": "RRIRNRPPRLPRPRPRPDRAPRP", "shrunken log2 fold change": 0.171}
    ]}
  ]
}
